Data reported in patent publication US20150307603A1 (MODIQUEST B V, published 2015).
Non-standard residues stand in square brackets, D forms with d. No end group written: not given here. Cit = NC(=O)NCCC[C@H](N)C(=O)O

Tests used:
[1] = target: T1, CFC-1; test: ELISA, Ab 10 ug/well
T1 construct: Positive control for anti-citrulline reactivity; also called cfc1 XG; Cfc1-peptide
Method: (§1) Biotin and citrulline-containing peptides derived from fibrinogen and vimentin were immobilized on NEUTRAVIDIN®-coated 96-well ELISA plates (0.3 μg/well). CFC-1 and CFC-0 were coated at the same concentration and served as positive and negative controls, respectively, for specific anti-citrulline reactivity and as coating controls. Non-coated wells were used to test for aspecific binding of the antibodies. […] Detection of bound anti-citrulline antibodies was performed by incubating the wells with rabbit anti-human HRP (1:2000) for 1 hour at RT followed by incubation with TMB substrate. The resulting OD (y-axis) is a measure for antibody binding.
(§2) Biotin-labeled and citrulline-containing fibrinogen and vimentin peptides (Table 5) were also tested for reactivity with the therapeutic antibodies. Peptides were coated on 96-well NEUTRAVIDIN®-ELISA plates.

[2] = target: T2, msFibα XG (mouse, X at position 8 = citrulline; biotin-labelled); test: ELISA, Ab 10 ug/well
T2 peptide: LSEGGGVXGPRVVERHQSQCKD
Method: as §1, §2

[3] = target: T3, msFibβ XG (mouse, also: biotin-labelled); test: ELISA, Ab 10 ug/well
T3 construct: also called mouse fibrinogen β peptide
T3 peptide: EPTDSLDA[Cit]GHRPVDRR
Method: as §1, §2

[4] = target: T4, msFibα XH (mouse, X at position 15 = citrulline; biotin-labelled); test: ELISA, Ab 10 ug/well
T4 peptide: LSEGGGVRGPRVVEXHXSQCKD
Method: as §1, §2

[5] = target: T5, huFibα XH (human, X at position 15 = citrulline; biotin-labelled); test: ELISA, Ab 10 ug/well
T5 peptide: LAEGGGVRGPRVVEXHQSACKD
Method: as §1, §2

[6] = target: T6, huFibα XG (human, X at position 8 = citrulline; biotin-labelled); test: ELISA, Ab 10 ug/well
T6 peptide: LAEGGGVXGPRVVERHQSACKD
Method: as §1, §2

[7] = target: T7, msVim XS/XL (mouse, also: biotin-labelled); test: ELISA, Ab 10 ug/well
T7 construct: also called mouse vimentin peptide
T7 peptide: YVT[Cit]SSAV[Cit]L[Cit]SSVP
Method: as §1, §2

[8] = target: T1, CFC-1; test: ELISA, Ab 0.016 ug/well
Method: as §1, §2

[9] = target: T2, msFibα XG; test: ELISA, Ab 0.016 ug/well
Method: as §1, §2

[10] = target: T3, msFibβ XG; test: ELISA, Ab 0.016 ug/well
Method: as §1, §2

[11] = target: T4, msFibα XH; test: ELISA, Ab 0.016 ug/well
Method: as §1, §2

[12] = target: T5, huFibα XH; test: ELISA, Ab 0.016 ug/well
Method: as §1, §2

[13] = target: T6, huFibα XG; test: ELISA, Ab 0.016 ug/well
Method: as §1, §2

[14] = target: T7, msVim XS/XL; test: ELISA, Ab 0.016 ug/well
Method: as §1, §2

[15] = target: T1, CFC-1; test: ELISA, Ab 0.000128 ug/well
Method: as §1, §2

[16] = target: T2, msFibα XG; test: ELISA, Ab 0.000128 ug/well
Method: as §1, §2

[17] = target: T3, msFibβ XG; test: ELISA, Ab 0.000128 ug/well
Method: as §1, §2

[18] = target: T4, msFibα XH; test: ELISA, Ab 0.000128 ug/well
Method: as §1, §2

[19] = target: T5, huFibα XH; test: ELISA, Ab 0.000128 ug/well
Method: as §1, §2

[20] = target: T6, huFibα XG; test: ELISA, Ab 0.000128 ug/well
Method: as §1, §2

[21] = target: T7, msVim XS/XL; test: ELISA, Ab 0.000128 ug/well
Method: as §1, §2

[22] = target: T1, CFC-1; test: ELISA, Ab 0.4 ug/well
Excerpt: (§3) The resulting OD (y-axis) is a measure for antibody binding. H1-recombinant histone 1; H1/p2-huPAD2 recombinant histone 1; H1/p4-huPAD4 recombinant histone 1, and so forth (x-axis).

[23] = target: T8, huPAD2-deiminated human recombinant histone 3 (human); test: ELISA, Ab 0.4 ug/well
T8 construct: also called H3/p2; histone 3/p2
Excerpt: as §3

[24] = target: T9, human recombinant histone 2A (human); test: ELISA, Ab 0.4 ug/well
T9 construct: Non-deiminated; also called H2A
Excerpt: as §3

[25] = target: T10, human recombinant histone 3 (human); test: ELISA, Ab 0.4 ug/well
T10 construct: Non-deiminated; also called H3
Excerpt: as §3

[26] = target: T11, huPAD4-deiminated human recombinant histone 2B (human); test: ELISA, Ab 0.4 ug/well
T11 construct: also called H2B/p4
Excerpt: as §3

[27] = target: human recombinant histone 4 (human, UniProt P62805 2-103); test: ELISA, Ab 0.4 ug/well
Excerpt: as §3

[28] = target: T12, huPAD2-deiminated human recombinant histone 2A (human); test: ELISA, Ab 0.4 ug/well
T12 construct: also called H2A/p2; histone 2A/p2
Excerpt: as §3

[29] = target: T13, huPAD4-deiminated human recombinant histone 3 (human); test: ELISA, Ab 0.4 ug/well
T13 construct: also called H3/p4
Excerpt: as §3

[30] = target: T14, huPAD4-deiminated human recombinant histone 2A (human); test: ELISA, Ab 0.4 ug/well
T14 construct: also called H2A/p4; histone 2A/p4
Excerpt: as §3

[31] = target: T15, huPAD2-deiminated human recombinant histone 2B (human); test: ELISA, Ab 0.4 ug/well
T15 construct: also called H2B/p2
Excerpt: as §3

B1: RhmAb2.102 (antibody, human IgG1, lambda)
heavy: not shown
light: QSVLTQPPSMSAAPGQKVTISCSGSSSNIGNNYVSWYQQVPGTAPKLLIYDDNKRPSGIPGRFSGSKSATSATLGITGLQAGDEADYYCGSWDDNLSVVLFGGGTKLTVLGQPKAAPSVTLFPPSSEELQANKATLVCLISDFYPGAVTVAWKADSSPVKAGVETTTPSKQSNNKYAASSYLSLTPEQWKSHRSYSCQVTHEGSTVEKTVAPTECS
notes: Human IgG1 lambda; also called Rhm2.102
OD [1]: 3.89 OD450 | OD [2]: 3.03 OD450 | OD [3]: 3.8 OD450 | OD [4]: 0.154 OD450 | OD [5]: 0.179 OD450 | OD [6]: 2.73 OD450 | OD [7]: 3.69 OD450 | OD [8]: 1.22 OD450 | OD [9]: 0.107 OD450 | OD [10]: 0.174 OD450 | OD [11]: 0.081 OD450 | OD [12]: 0.08 OD450 | OD [13]: 0.103 OD450 | OD [14]: 0.201 OD450 | OD [15]: 0.288 OD450 | OD [16]: 0.119 OD450 | OD [17]: 0.118 OD450 | OD [18]: 0.089 OD450 | OD [19]: 0.12 OD450 | OD [20]: 0.115 OD450 | OD [21]: 0.133 OD450 | OD [22]: 3.12 OD450 | OD [23]: 1.18 OD450 | OD [24]: 0.071 OD450 | OD [25]: 0.08 OD450 | OD [26]: 0.054 OD450 | OD [27]: 0.091 OD450 | OD [28]: 3.08 OD450 | OD [29]: 0.166 OD450 | OD [30]: 2.72 OD450 | OD [31]: 0.06 OD450
